# From the RNAGym collection of RNA variant scans (doi:10.1073/pnas.2313332121)
# Variants at the floor of the assay were thinned out.
# B1: TPR 5TU (parent)
# chain: GGAUCUUCUCGAUCUAACAAAAAAGACAAAUCUGCCACAAAGCUUGAGAGCAUCUUCGGAUGCAGAGGCGGCAGCCUUCGGUGGCGCGAUAGCGCCAACGUUCUCAACUAUGACACGCAAAACGCGUGCUCCGUUGAAUGGAGUUUAUCAUG
# Variants of: B1
# Experiment: polymerase ribozyme fitness, log enrichment relative to wild type (log ratio); higher = more active; in vitro selection for triplet polymerase activity
# How it was run: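 The heterodimeric triplet polymerase ribozyme's subunits were each mutagenized into PCR-built libraries and transcribed. Every library was selected once, in triplicate, by annealing with a biotinylated primer, the partner subunit and triplets, incubating frozen at −7 °C, gel-excising extended constructs, capturing on streptavidin beads and running RT-PCR. Input and output libraries were Illumina-sequenced, with genotypes kept only at ≥10 input reads and ≥1 read per output. Fitness, from inverse-variance-weighted replicate averages, is the base-2 logarithm of genotype enrichment over wild-type enrichment.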
row,Variant,polymerase ribozyme fitness (log ratio)
1,A17U A20G C63A G92A A150U,-2.12
2,A16U C18A A21C A73U G92U,-2.75
3,A19C A47C C54A U56A C87A G100C G136A,≤ -4.2
4,A17G A19U,0.00969
5,A17U A21U U55A A91C C95G A98U C108G,≤ -4.2
6,C18U G50U C96G U146C,-0.747
7,A16U A41U G59A C116G C129U A150G,≤ -4.2
8,A17U A40G G94C C132U,-4.03
9,C18G A28U A66U G94U C95A,≤ -4.2
10,A17C C18G A26U A41C U45G A49U U55A G62A G92U C108U C118U,≤ -4.2
11,A17C C85U,0.349
12,A17U A29U G74C G124U,≤ -4.2
13,C18G G92C C129U A150U,-3.54
14,A17C G58U G128A A138U,-4.13
15,A17U G80C C93A U101G,≤ -4.2
16,A16U U45C C123A,-2.97
17,A17C U44G U61G,≤ -4.2
18,A17C C131G,-3.09
19,A17U A26C C38U G83A G124U,-3.97
20,A17G C87A C103U,≤ -4.2
21,A17C G25C A41U C51A G84C G94U A110G U144C U146G,≤ -4.2
22,A16U A37C C63U C95U A119U A122U,-3.13
23,A17C U53A G71C G83A A91U C93A C108U U127G,≤ -4.2
24,C18G G80U C116U,-1.62

row,Variant,polymerase ribozyme fitness (log ratio)
1,A17C A26U C75A G84A G141U,≤ -4.2
2,C18G C116U,-0.663
3,C18A A39C G58C G84A U145G,-3.36
4,C18U A28U C38A A47C C85A U145C,≤ -4.2
5,C18G G50A C96G A121C,-2.18
6,A17U C93G U102A A107C G143A,≤ -4.2
7,C18G U31G A52G G80C U101C U127G,≤ -4.2
8,A17G A19C G80C G92A C116U G136C G140A,≤ -4.2
9,A16U G59C A150U,-0.494
10,C18G C51U C87G C99A U101C C118U G136A,≤ -4.2
11,A17G C125A,0.215
12,A17U G50A C87G G141A,≤ -4.2
13,A17G C132G,-3.28
14,C18G A29U U31G U44C A49U C76U A98G C118A,≤ -4.2
15,A19C A24U C57G C75U G92U C118A,-0.536
16,C18G A23C G34A A66U G84U U135A,≤ -4.2
17,A19C C36U G70A G80U C105U G152U,-3.99
18,A17U C105A,-1.28
19,A17G C18G A64G C85A G100A A106U A119U,≤ -4.2
20,A17G C72A U77G C79U U109G,≤ -4.2
21,A16U U53A A66G C87A,≤ -4.2
22,A19C C32U C69A U77C C103A G143A U145A,≤ -4.2
23,C18G C36A C95A C96A,≤ -4.2
24,C18G A49C C57G C87A G128U U146G,≤ -4.2

row,Variant,polymerase ribozyme fitness (log ratio)
1,A17U G48A C51G U55G C96G C105U C118U G136U G141U,≤ -4.2
2,A17U U53G C57U G59C G117U,-0.451
3,A19C C27A C125U U148G,≤ -4.2
4,A17U G81C U102G U130G G141A,≤ -4.2
5,C18U A23U A26U A30U C87U C96G C108U G136A,≤ -4.2
6,A17U C87G,-3.75
7,A17G G50U C95U G124C G141A,-0.476
8,A17G A37U C51U,-2.83
9,A17C G81U C85A C95U C105G,-1.64
10,A19C C27A A39C C79U C93A U102G G117C,-4.01
11,A17C C18U C43U A97G U148A,≤ -4.2
12,A17G A40C G48C,-1.5
13,A17U C54A A89C C99A G136A,-4.03
14,A17C C27U C38A C85U,-0.305
15,C18G G50U G88A,-4.08
16,A16U G84A,-2.41
17,C18G A19G A20U C57U G68C G141A,≤ -4.2
18,C18U U31G A37C C54U A91C U134C U146C,≤ -4.2
19,A16U C38U C51U A73G G92U G94A A98C U151A,-3.96
20,C18G A26U C35U U78A C99G U135C A147C,≤ -4.2
21,C18G A52U U82A,-3.02
22,A16U A24U U33A C35U C87G,-4.15
23,C18A A20G G46C U56C G94C C105G A122U,-0.89
24,A16U G94A,-2.47

row,Variant,polymerase ribozyme fitness (log ratio)
1,A16U A22U C38U C85U,-2.73
2,A17G A21G A52U U56A A91G,-4
3,A17C U31A G92U A98U G141A,0.253
4,A17G U101A C105G,-3.18
5,C18G A21C A52G G84U G133C U134C,-4.07
6,A17G A37U C87U C99A C123U,-3.98
7,A17G G46A C69A A121G,-3.45
8,A19C A52U,-1.43
9,A16U C87U C116U,-2.25
10,A17C G34U C51U C57A G86A,-4.06
11,A17G U134G,-1.76
12,A17U C51A G94U A138G A150U,≤ -4.2
13,A17G C27U A49U C79A G83U C87U A120U,≤ -4.2
14,A17U C116U,-0.46
15,C18U A19G G94A,-2.01
16,A17U C57A G83C C99G,≤ -4.2
17,A17G C38U C57A C63A A115G U144A,-1.28
18,A19C A60G C96U,0.412
19,A17G U61A G71A G143A,≤ -4.2
20,A17C A40U U55A A60U A66C C85G C116G G141C A147U,≤ -4.2
21,A17G A24C A41U A91U A98G,≤ -4.2
22,C18U A37U G83A C87U U90G A98C C116A G133U A137C,≤ -4.2
23,A17C C76U C93G U102G C105A,≤ -4.2
24,A19C A29U C54G C108U,≤ -4.2

row,Variant,polymerase ribozyme fitness (log ratio)
1,A17C A52C C79A G81A G84U A110G G112C,≤ -4.2
2,A17U C85U U104G,-1.01
3,A17G C79A G80C U109C,≤ -4.2
4,A19C C32U A49G G59U,≤ -4.2
5,A16U A49G,-1.93
6,A17G C129G,-3.57
7,C18A A19C A40C C85U,0.244
8,C18U G81A C87U A97U,-1.14
9,A17G A21G U90C A147C A150U,≤ -4.2
10,C18A A89G U90G A97G,≤ -4.2
11,A17C C93U,-1.02
12,C18U G88C C103A G112C G143C,≤ -4.2
13,A17U G25C A29U G48C U53A G70U C93G C129A C131A A150C,≤ -4.2
14,A17G A52C,-0.98
15,A17U C79G C87U U144G,≤ -4.2
16,A17U C35U A97U G141A,-1.34
17,A17C C27U G71A C93G A113C U134G U151G,≤ -4.2
18,C18G A52C C69G C75G G94A C95U A113U,≤ -4.2
19,C18G C63G G68U G71A U78G C85G G100A G141U,≤ -4.2
20,C18U G25C A26C C32G G50U G58C C75U A91G C114A,≤ -4.2
21,A17C A30C,-3.82
22,C18U U44A G50A A52U G74A A91U C105G A106G C129G,≤ -4.2
23,A17C C95U C96U G136A U144C A147U,-0.941
24,A16U U61A G74A C96G,≤ -4.2

row,Variant,polymerase ribozyme fitness (log ratio)
1,A17C U33C G83A G141U,≤ -4.2
2,C18U G62A G67A U77G C87A U101C C123U G136A,≤ -4.2
3,A17C U55G C57A G59C C85A A115G A119U,-2.46
4,A17G C32A A49C G83U A107G G143U,≤ -4.2
5,A17U U55A G84C C95G U148A,-3.23
6,C18U G58C C85U C87U,-1.92
7,A17C C32A U53A G67A G74C U101A,≤ -4.2
8,A16U C27A G42A U44G U45A A49C A113G U144A,≤ -4.2
9,C18U A40G,-2.32
10,A17C U55A G68A A73G C85U U127A G141U,≤ -4.2
11,A16U A26C C54A A119C G133C U135A,≤ -4.2
12,A19C A30G C87U G128C G136U,≤ -4.2
13,A17G G84A A147C,-0.273
14,C18U G65U A73G C85U G141C,≤ -4.2
15,A17C A29U C72U G81C G140U,≤ -4.2
16,C18U C35U G58U G80C C85U,≤ -4.2
17,A17G U90C C93U C105G A122G G143C,≤ -4.2
18,A19C C36U G59U A60G C93U U104G,-3.23
19,C18U A20G C87G U102G,≤ -4.2
20,A17G C38U G81A C96A,0.341
21,A17U A52U A142C,-3.3
22,A17G A26C A40U A47C G59A G68A U109G C116G A119C,≤ -4.2
23,A16U A26C G84A,-3.52
24,A17U A21C U44A A49C C72A U82A U134A,≤ -4.2

row,Variant,polymerase ribozyme fitness (log ratio)
1,A17G U45G G80U,≤ -4.2
2,A19C A21C A26C U44A C57A U61A G68A G86A C118U,≤ -4.2
3,C18G U55A A98G A106G G112U A120U,-3.87
4,A17U A19U C63U G68C C95U C96A G140A,≤ -4.2
5,C18U A20C G34U C76A C79A G88A,≤ -4.2
6,A17G G59U A97C C99G,-2.61
7,A17G U45A G50A G62U C79G G86U C103A,≤ -4.2
8,A17G C18U A40C C99G,-3.19
9,A17U A113U,-1.99
10,A17U A20G G42C C85U G128C,≤ -4.2
11,C18A U56A G92U C105U C114A U144G,-3.79
12,A17C C36U A52C G80U G84C A107U U144C,≤ -4.2
13,A17U C93A,-2.74
14,C18A C85A G112C C116U,≤ -4.2
15,A17C C76U G92U C129A,-3.05
16,A17C C57U C93A U101G U144A,-2.86
17,A17U A19U A37U U53A G58A C95A A121G A122C,-3.75
18,A16U A64U A66C C93G,≤ -4.2
19,A17U A21U G67C C76U A91U C118G,≤ -4.2
20,A19C A41G G59U A91C A107G A120U,≤ -4.2
21,A17U A47G C57U G74C U77C U82A G83A U102G A150G,≤ -4.2
22,C18G U55A,-0.923
23,A16U U31G A37G G83A C96A A106C,≤ -4.2
